Experimental data from paper PMC7515736, “Genome-wide binding of [sequence]3 and AGAMOUS complexes determined by sequential DNA-affinity purification sequencing”.

B1: KNU WT (dsDNA)
DNA 1: GGTAAGAGAAACATAGAAACCTTCCATGTTTGGCAATTTCATCTTGGAACTTGATTCACTCTCTCTTGTCTTCTTTGTGCATCACAAGAACAACAA
DNA 2: TTGTTGTTCTTGTGATGCACAAAGAAGACAAGAGAGAGTGAATCAAGTTCCAAGATGAAATTGCCAAACATGGAAGGTTTCTATGTTTCTCTTACC
B2: KNU -10 probe (86 bp) (dsDNA)
DNA 1: GGTAAGAGAAACATAGAAACCTTCCATGTTTGGCAATTTCATCTTGGACTCTCTCTTGTCTTCTTTGTGCATCACAAGAACAACAA
DNA 2: TTGTTGTTCTTGTGATGCACAAAGAAGACAAGAGAGAGTCCAAGATGAAATTGCCAAACATGGAAGGTTTCTATGTTTCTCTTACC
B3: KNU +10 probe (106 bp) (dsDNA)
DNA 1: GGTAAGAGAAACATAGAAACCTTCCATGTTTGGCAATTTCATCTTGGAAGTCAGTAGCTCTTGATTCACTCTCTCTTGTCTTCTTTGTGCATCACAAGAACAACAA
DNA 2: TTGTTGTTCTTGTGATGCACAAAGAAGACAAGAGAGAGTGAATCAAGAGCTACTGACTTCCAAGATGAAATTGCCAAACATGGAAGGTTTCTATGTTTCTCTTACC
B4: KNU -10 (96 bp) (dsDNA)
DNA 1: GAAAGAGGGTAAGAGAAACATAGAAACCTTCCATGTTTGGCAATTTCATCTTGGACTCTCTCTTGTCTTCTTTGTGCATCACAAGAACAACAAATA
DNA 2: TATTTGTTGTTCTTGTGATGCACAAAGAAGACAAGAGAGAGTCCAAGATGAAATTGCCAAACATGGAAGGTTTCTATGTTTCTCTTACCCTCTTTC
B5: KNU +10 (96 bp) (dsDNA)
DNA 1: AAACATAGAAACCTTCCATGTTTGGCAATTTCATCTTGGAAGTCAGTAGCTCTTGATTCACTCTCTCTTGTCTTCTTTGTGCATCACAAGAACAAC
DNA 2: GTTGTTCTTGTGATGCACAAAGAAGACAAGAGAGAGTGAATCAAGAGCTACTGACTTCCAAGATGAAATTGCCAAACATGGAAGGTTTCTATGTTT
B6: KNU -5 (96 bp) (dsDNA)
DNA 1: AGAGGGTAAGAGAAACATAGAAACCTTCCATGTTTGGCAATTTCATCTTGGAACTTACTCTCTCTTGTCTTCTTTGTGCATCACAAGAACAACAAA
DNA 2: TTTGTTGTTCTTGTGATGCACAAAGAAGACAAGAGAGAGTAAGTTCCAAGATGAAATTGCCAAACATGGAAGGTTTCTATGTTTCTCTTACCCTCT
B7: KNU +5 (96 bp) (dsDNA)
DNA 1: AGAGAAACATAGAAACCTTCCATGTTTGGCAATTTCATCTTGGAAGTCAGCTTGATTCACTCTCTCTTGTCTTCTTTGTGCATCACAAGAACAACA
DNA 2: TGTTGTTCTTGTGATGCACAAAGAAGACAAGAGAGAGTGAATCAAGCTGACTTCCAAGATGAAATTGCCAAACATGGAAGGTTTCTATGTTTCTCT

These binders were tested against SEP3 (…3);AG (AGAMOUS) (Arabidopsis thaliana;Arabidopsis …, UniProt O22456;P17839 1-251;1-252, |) (assay: EMSA; tetramer; EMSA as in the authors' ref. 20 (buffer, salt, pH, temperature not given); Cy5 probes; unpurified wheat germ TnT proteins). Settings: protein: ivt;ivt; tags: C-terminal 3xFLAG;C-terminal 5xMyc; copies: 1;1; label: Cy5; blunt.
Sequence of SEP3 (…3);AG (AGAMOUS) (O22456 whole entry, chain 1 of 2): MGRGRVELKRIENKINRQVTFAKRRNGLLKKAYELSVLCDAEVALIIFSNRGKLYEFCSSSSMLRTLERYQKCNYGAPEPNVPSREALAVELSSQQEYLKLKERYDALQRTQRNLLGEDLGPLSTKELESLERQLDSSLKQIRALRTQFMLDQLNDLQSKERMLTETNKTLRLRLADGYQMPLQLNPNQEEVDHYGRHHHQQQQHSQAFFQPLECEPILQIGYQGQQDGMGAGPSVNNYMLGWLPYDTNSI
Sequence of SEP3 (…3);AG (AGAMOUS) (P17839 whole entry, chain 2 of 2): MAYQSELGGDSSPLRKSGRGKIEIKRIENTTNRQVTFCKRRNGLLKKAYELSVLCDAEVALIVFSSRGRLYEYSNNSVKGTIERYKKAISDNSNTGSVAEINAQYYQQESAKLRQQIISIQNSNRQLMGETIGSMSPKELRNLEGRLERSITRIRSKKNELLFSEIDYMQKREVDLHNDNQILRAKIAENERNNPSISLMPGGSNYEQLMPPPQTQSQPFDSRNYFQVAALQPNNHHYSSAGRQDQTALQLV

Binding result, binds:
B1
B2
B3
B4
B5

What follows are binders tested against SEP3Δtet (SEP3 splice variant);AG (AGAMOUS) (Arabidopsis thaliana;Arabidopsis …, UniProt F4I972;P17839 1-237;1-252, del161-174|) (assay: EMSA; dimer; EMSA as in the authors' ref. 20 (buffer, salt, pH, temperature not given); Cy5 probes; unpurified wheat germ TnT proteins). Settings: protein: ivt;ivt; tags: C-terminal 3xFLAG;C-terminal 5xMyc; copies: 1;1; label: Cy5; blunt.
Sequence of SEP3Δtet (SEP3 splice variant);AG (AGAMOUS) (P17839 other isoform, or with tags, fused parts or gaps del161-174| | mutant, chain 1 of 2): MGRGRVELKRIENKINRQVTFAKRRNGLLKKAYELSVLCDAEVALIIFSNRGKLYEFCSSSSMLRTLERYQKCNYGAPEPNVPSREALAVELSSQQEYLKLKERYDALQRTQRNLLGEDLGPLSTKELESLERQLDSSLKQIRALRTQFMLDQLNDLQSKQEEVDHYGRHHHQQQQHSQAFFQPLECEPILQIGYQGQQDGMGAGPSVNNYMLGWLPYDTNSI
Sequence of SEP3Δtet (SEP3 splice variant);AG (AGAMOUS) (P17839 whole entry, stated change not applied, chain 2 of 2, canonical isoform): as the sequence (P17839 whole entry, chain 2 of 2) above

Binding result, binds:
B1
B4
B5
B6
B7
